B1: Protein phosphatase 2C 56 (Arabidopsis thaliana (Mouse-ear cress)), P49597 (parent)
chain: MEEVSPAIAGPFRPFSETQMDFTGIRLGKGYCNNQYSNQDSENGDLMVSLPETSSCSVSGSHGSESRKVLISRINSPNLNMKESAAADIVVVDISAGDEINGSDITSEKKMISRTESRSLFEFKSVPLYGFTSICGRRPEMEDAVSTIPRFLQSSSGSMLDGRFDPQSAAHFFGVYDGHGGSQVANYCRERMHLALAEEIAKEKPMLCDGDTWLEKWKKALFNSFLRVDSEIESVAPETVGSTSVVAVVFPSHIFVANCGDSRAVLCRGKTALPLSVDHKPDREDEAARIEAAGGKVIQWNGARVFGVLAMSRSIGDRYLKPSIIPDPEVTAVKRVKEDDCLILASDGVWDVMTDEEACEMARKRILLWHKKNAVAGDASLLADERRKEGKDPAAMSAAEYLSKLAIQRGSKDNISVVVVDLKPRRKLKSKPLN
partner: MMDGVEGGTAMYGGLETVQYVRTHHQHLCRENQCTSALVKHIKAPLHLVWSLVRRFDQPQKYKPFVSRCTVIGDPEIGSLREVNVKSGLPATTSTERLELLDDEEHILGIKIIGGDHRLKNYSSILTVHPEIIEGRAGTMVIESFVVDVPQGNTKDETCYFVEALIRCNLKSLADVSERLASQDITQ
B2: Protein phosphatase 2C 77 (Arabidopsis thaliana (Mouse-ear cress)), O04719 (parent)
chain: MDEVSPAVAVPFRPFTDPHAGLRGYCNGESRVTLPESSCSGDGAMKDSSFEINTRQDSLTSSSSAMAGVDISAGDEINGSDEFDPRSMNQSEKKVLSRTESRSLFEFKCVPLYGVTSICGRRPEMEDSVSTIPRFLQVSSSSLLDGRVTNGFNPHLSAHFFGVYDGHGGSQVANYCRERMHLALTEEIVKEKPEFCDGDTWQEKWKKALFNSFMRVDSEIETVAHAPETVGSTSVVAVVFPTHIFVANCGDSRAVLCRGKTPLALSVDHKPDRDDEAARIEAAGGKVIRWNGARVFGVLAMSRSIGDRYLKPSVIPDPEVTSVRRVKEDDCLILASDGLWDVMTNEEVCDLARKRILLWHKKNAMAGEALLPAEKRGEGKDPAAMSAAEYLSKMALQKGSKDNISVVVVDLKGIRKFKSKSLN
partner: B1 partner

Variants of: B1
Settings: with pyl9_arath PYL9, Q84MC7

effect of a mutation on the interaction	Variant
decreasing interaction	MEEVSPAIAGPFRPFSETQMDFTGIRLGKGYCNNQYSNQDSENGDLMVSLPETSSCSVSGSHGSESRKVLISRINSPNLNMKESAAADIVVVDISAGDEINGSDITSEKKMISRTESRSLFEFKSVPLYGFTSICGRRPEMEDAVSTIPRFLQSSSGSMLDGRFDPQSAAHFFGVYDGHDGSQVANYCRERMHLALAEEIAKEKPMLCDGDTWLEKWKKALFNSFLRVDSEIESVAPETVGSTSVVAVVFPSHIFVANCGDSRAVLCRGKTALPLSVDHKPDREDEAARIEAAGGKVIQWNGARVFGVLAMSRSIGDRYLKPSIIPDPEVTAVKRVKEDDCLILASDGVWDVMTDEEACEMARKRILLWHKKNAVAGDASLLADERRKEGKDPAAMSAAEYLSKLAIQRGSKDNISVVVVDLKPRRKLKSKPLN [G180D]

Variants of: B2
Settings: with pyl9_arath PYL9, Q84MC7

effect of a mutation on the interaction	Variant
disrupting interaction	MDEVSPAVAVPFRPFTDPHAGLRGYCNGESRVTLPESSCSGDGAMKDSSFEINTRQDSLTSSSSAMAGVDISAGDEINGSDEFDPRSMNQSEKKVLSRTESRSLFEFKCVPLYGVTSICGRRPEMEDSVSTIPRFLQVSSSSLLDGRVTNGFNPHLSAHFFGVYDGHDGSQVANYCRERMHLALTEEIVKEKPEFCDGDTWQEKWKKALFNSFMRVDSEIETVAHAPETVGSTSVVAVVFPTHIFVANCGDSRAVLCRGKTPLALSVDHKPDRDDEAARIEAAGGKVIRWNGARVFGVLAMSRSIGDRYLKPSVIPDPEVTSVRRVKEDDCLILASDGLWDVMTNEEVCDLARKRILLWHKKNAMAGEALLPAEKRGEGKDPAAMSAAEYLSKMALQKGSKDNISVVVVDLKGIRKFKSKSLN [G168D]
